This note sets out measurements from patent US20100330066A1.

The assay concerns the target murine BAFF (murine) (UniProt Q9WU72). Kind of assay: cell-based or functional assay.
Sequence of UniProt Q9WU72 (Q9WU72 127-309 limits assumed): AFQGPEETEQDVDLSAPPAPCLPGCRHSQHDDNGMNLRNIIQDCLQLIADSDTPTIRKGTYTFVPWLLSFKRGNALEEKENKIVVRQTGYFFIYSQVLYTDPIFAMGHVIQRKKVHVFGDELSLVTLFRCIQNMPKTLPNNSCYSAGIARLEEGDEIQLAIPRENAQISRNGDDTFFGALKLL

For “BAFF-R:Fc (BAFF-R Fc fusion protein) (from UniProt Q96RJ3 2-71)”, the B cell surface IgG2a/b expression (MFI, flow cytometry) in wildtype mice after BAFF-R:Fc treatment was 1.7 fold and the NF-κB2 transcription in spleen of wildtype mice, 2 days after i.p. BAFF-R:Fc (Affymetrix microarray) is 1.82 fold.
